Measured values taken from PMC6151538 (2017).

T1: fetuin (Bos taurus, UniProt P12763)
T1 chain: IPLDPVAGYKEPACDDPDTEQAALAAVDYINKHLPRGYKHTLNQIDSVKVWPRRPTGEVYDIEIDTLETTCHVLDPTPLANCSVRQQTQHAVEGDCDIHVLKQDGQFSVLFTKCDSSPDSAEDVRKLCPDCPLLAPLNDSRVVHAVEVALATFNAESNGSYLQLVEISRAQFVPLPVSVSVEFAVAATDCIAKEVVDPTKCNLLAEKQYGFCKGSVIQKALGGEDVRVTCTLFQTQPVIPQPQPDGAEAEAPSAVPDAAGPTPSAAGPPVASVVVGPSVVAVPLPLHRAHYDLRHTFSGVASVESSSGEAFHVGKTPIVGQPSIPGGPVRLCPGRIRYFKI

T2: asialofetuin (Bos taurus, UniProt P12763)
T2 chain: T1 chain

B1: Gal-8 (NN) N-terminal CRD tandem homodimer (NN, no linker) (protein)
chain: MMLSLNNLQNIIYNPVIPFVGTIPDQLDPGTLIVIRGHVPSDADRFQVDLQNGSSMKPRADVAFHFNPRFKRAGCIVCNTLINEKWGREEITYDTPFKREKSFEIVIMVLKDKFQVAVNGKHTLLYGHRIGPEKIDTLGIYGKVNIHSIGFSFSS
modifications: engineered linker-free tandem of two Gal-8N CRDs, biotinylated; fetuin with sialylated N-glycans
B2: Gal-8 (NN) N-terminal CRD tandem homodimer (NN, no linker) (protein)
chain: B1 chain
modifications: engineered linker-free tandem of two Gal-8N CRDs, biotinylated; fetuin chemically desialylated (N-glycans)

What was measured:
[1] = molecular target: T1, fetuin; experiment: solid-phase assay, Scatchard analysis
[2] = molecular target: T2, asialofetuin; experiment: solid-phase assay, Scatchard analysis

Binder	Kd [1] [nM]	Kd [2] [nM]
B1	93	
B2		148
